Measured values taken from patent publication US20110135636A1 (SYMPHOGEN A S, published 2011).
Each block holds one binder with its values, some of them ahead of it.

Key:
[1] = target: T1, recombinant human EGFR extracellular domain with 6xHis (human, UniProt P00533 25-645); assay: SPR competition, competitor Ab-1
T1 construct: In-house produced; also called 6xHis EGFR ECD; soluble human EGFR ECD; not shown: 6xHis tag
Outline: (§1)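 Capture surface: polyclonal anti-His antibody (10,000 Ru) on CM5, Biacore 3000, four flow cells. EGFR ECD captured; test mAb 40 μg/ml injected alone (reference), then after competitor saturation. Regeneration with 10 mM Glycine-HCl pH 2, 10 s.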

[2] = target: T1, recombinant human EGFR extracellular …; assay: SPR competition, competitor Ab-3
Outline: as §1

[3] = target: T1, recombinant human EGFR extracellular …; assay: SPR competition, competitor Ab-5
Outline: as §1

[4] = target: T1, recombinant human EGFR extracellular …; assay: SPR competition, competitor 1024
Outline: as §1

[5] = target: T1, recombinant human EGFR extracellular …; assay: SPR competition, competitor 1208
Outline: as §1

[6] = target: T1, recombinant human EGFR extracellular …; assay: SPR competition, competitor 1254
Outline: as §1

[7] = target: T1, recombinant human EGFR extracellular …; assay: SPR competition, competitor 1257
Outline: as §1

[8] = target: T1, recombinant human EGFR extracellular …; assay: SPR competition, competitor 1260
Outline: as §1

[9] = target: T1, recombinant human EGFR extracellular …; assay: SPR competition, competitor 1261
Outline: as §1

[10] = target: T1, recombinant human EGFR extracellular …; assay: SPR competition, competitor 1277
Outline: as §1

[11] = target: T1, recombinant human EGFR extracellular …; assay: SPR competition, competitor 1284
Outline: as §1

[12] = target: T1, recombinant human EGFR extracellular …; assay: SPR competition, competitor 1308
Outline: as §1

[13] = target: T1, recombinant human EGFR extracellular …; assay: SPR competition, competitor 1320
Outline: as §1

[14] = target: T1, recombinant human EGFR extracellular …; assay: SPR competition, competitor 1344
Outline: as §1

[15] = target: T1, recombinant human EGFR extracellular …; assay: SPR competition, competitor 1347
Outline: as §1

[16] = target: T1, recombinant human EGFR extracellular …; assay: SPR competition, competitor 1449
Outline: as §1

[17] = target: T1, recombinant human EGFR extracellular …; assay: SPR competition, competitor Ab-10
Outline: as §1

[18] = target: T1, recombinant human EGFR extracellular …; assay: SPR competition, competitor Ab-11
Outline: as §1

[19] = target: T1, recombinant human EGFR extracellular …; assay: SPR competition, competitor ICR10
Outline: as §1

[20] = target: T1, recombinant human EGFR extracellular …; assay: SPR competition, competitor Erbitux
Outline: as §1

[21] = target: T1, recombinant human EGFR extracellular …; assay: SPR competition, competitor Erbitux; remark: listed apart in the source
Outline: as §1

[22] = target: T1, recombinant human EGFR extracellular …; assay: SPR competition, competitor Vectibix
Outline: as §1

[23] = target: T1, recombinant human EGFR extracellular …; assay: SPR competition, competitor 1030corr
Outline: as §1

[24] = target: T1, recombinant human EGFR extracellular …; assay: SPR competition, competitor 992 corr
Outline: as §1

[25] = target: T1, recombinant human EGFR extracellular …; assay: SPR competition, competitor Vectibix; remark: listed apart in the source
Outline: as §1

% inhibition [1]: -9%
% inhibition [2]: 9%
% inhibition [3]: -13%
% inhibition [4]: 0%
% inhibition [5]: -2%
% inhibition [6]: -3%
% inhibition [7]: 0%
% inhibition [8]: 79%
% inhibition [9]: 4%
% inhibition [10]: -3%
% inhibition [11]: 98%
% inhibition [12]: 68%
% inhibition [13]: -1%
% inhibition [14]: 73%
% inhibition [15]: 62%
% inhibition [16]: -1%
% inhibition [17]: -8%
% inhibition [18]: -15%
% inhibition [19]: 86%
% inhibition [20]: -7%
% inhibition [21]: -2%
% inhibition [22]: -13%
% inhibition [23]: -5%
% inhibition [24]: 6%
% inhibition [25]: -2%
B1: antibody 1284 (antibody, human IgG1, kappa, V domains shown)
VH: QVQLQQPGAELVKPGASVKLSCKASGYTFTSDWMHWMKQRPGQGLEWIGEINPSNGRSSYNEKFKSKATLTVDKSSSTAYMQLSSLTSEDSAVYYCARIGGIYVETYWGQGTLVTVSS
VL: DIVLTQSPASLAVSLGQRATISCRASQSVSTSTYSYMHWYQQKSGQPPKLLIKYASNLESGVPARFSGSGSGTDFTLNIHPVEEEDTATYYCQHSWEIPWTFGGGTKLEIKR
notes: Chimeric IgG1 kappa

% inhibition [1]: 3%
% inhibition [2]: 2%
% inhibition [3]: -3%
% inhibition [4]: 93%
% inhibition [5]: -3%
% inhibition [6]: 3%
% inhibition [7]: 2%
% inhibition [8]: -4%
% inhibition [9]: 4%
% inhibition [10]: 0%
% inhibition [11]: 5%
% inhibition [12]: -2%
% inhibition [13]: 97%
% inhibition [14]: 2%
% inhibition [15]: 5%
% inhibition [16]: 50%
% inhibition [17]: -2%
% inhibition [18]: -6%
% inhibition [19]: -3%
% inhibition [20]: 2%
% inhibition [21]: 2%
% inhibition [22]: 6%
% inhibition [23]: 0%
% inhibition [24]: -27%
% inhibition [25]: 14%
B2: antibody 1320 (antibody, human IgG1, kappa, V domains shown)
VH: QVQLQQPGAELVKPGASMKLSCKASGYTFTNYWMHWVKQRPGQGLEWIGEINPSNGRTNYNEKFKSKATLTVDKSSSTAYMQLSSLTSEDSGVYYCAKGGNYYDYDWDYWGQGTTLTVSS
VL: DIQMTQTTSSLSASLGDRVTISCSASQDISNYLNWYQQKPDGTVKLLIYHTSTLHSGVPSRFSGSGSGTDYSLTISNLEPEDIATYYCQQYSKLPWTFGGGTKLEIKR
notes: Chimeric IgG1 kappa
